The values below come from publication PMC10245715 (bioRxiv, 2023).

The target of the test is p97 (valosin-containing protein, VCP), full-length, wildtype, human (human, UniProt P55072 1-806). The test can be described thus: SEC. (In general: In gel filtration, larger molecules generally elute earlier.)
Sequence of p97 (valosin-containing protein, VCP), full-length, wildtype, human (P55072 whole entry): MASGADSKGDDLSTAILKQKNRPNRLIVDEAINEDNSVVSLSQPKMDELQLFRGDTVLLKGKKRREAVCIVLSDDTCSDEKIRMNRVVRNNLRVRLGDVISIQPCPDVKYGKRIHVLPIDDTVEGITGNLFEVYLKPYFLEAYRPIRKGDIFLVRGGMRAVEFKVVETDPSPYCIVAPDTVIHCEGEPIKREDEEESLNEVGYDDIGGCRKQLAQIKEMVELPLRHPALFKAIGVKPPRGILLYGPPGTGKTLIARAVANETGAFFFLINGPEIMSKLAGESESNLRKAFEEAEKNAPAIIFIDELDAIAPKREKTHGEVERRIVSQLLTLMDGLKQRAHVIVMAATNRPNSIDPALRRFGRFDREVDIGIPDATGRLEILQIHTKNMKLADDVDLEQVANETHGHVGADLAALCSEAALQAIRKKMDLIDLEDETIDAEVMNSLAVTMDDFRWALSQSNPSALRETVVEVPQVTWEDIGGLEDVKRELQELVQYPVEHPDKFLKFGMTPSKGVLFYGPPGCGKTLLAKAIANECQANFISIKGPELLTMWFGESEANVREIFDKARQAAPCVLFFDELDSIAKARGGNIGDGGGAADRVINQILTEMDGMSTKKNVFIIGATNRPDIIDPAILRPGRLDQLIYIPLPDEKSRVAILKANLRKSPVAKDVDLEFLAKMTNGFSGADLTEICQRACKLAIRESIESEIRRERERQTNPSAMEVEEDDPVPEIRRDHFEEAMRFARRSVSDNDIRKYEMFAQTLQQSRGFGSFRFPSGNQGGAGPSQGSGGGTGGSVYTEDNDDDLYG

B1: UBXD1 double mutant containing both the lariat and H4 changes, full-length (natural protein)
chain: MKKFFQEFKADIKFKSAGPGQKLKESVGEKAHKEKPNQPAPRPPRQGPTNEAQMAAAAALARLEQKQSRAWGPTQSRDVTQERIQNKAVLTEASGSPEAPGTNVVSEPREEGSAHLAVPGVYFTCPLTGATLRKDQRDACIKEAILLHFSTDPVAASIMKIYTFNKDQDRVKLGVDTIAKYLDNIHLHPEEEKYRKIKLQNKVFQERINCLEGTHEFFEAIGFQKVLLPAQDQEDPEEFYVLSETTLAQPQSLERHKEQLLAAEPVRAKLDRQRRVFQPSPLASQFELPGDFFNLTAERIKEEQRLESEAVRRLSVLRTKAMREKEEQRGLRKYNYTLLRVRLPDGCLLQGTFYARERLGAVYGFVREALQSDWLPFELLASGGQKLSEDENLALNECGLVPSALLTFSWDMAVLEDIKAAGAEPDSILKPELLSAIEKLL
Turning to B1, the binding result is recorded as “binds”.
